Assay [1] concerns the target T1, PACAP-R3 (Homo sapiens, UniProt P41587).
T1 sequence (P41587 24-438): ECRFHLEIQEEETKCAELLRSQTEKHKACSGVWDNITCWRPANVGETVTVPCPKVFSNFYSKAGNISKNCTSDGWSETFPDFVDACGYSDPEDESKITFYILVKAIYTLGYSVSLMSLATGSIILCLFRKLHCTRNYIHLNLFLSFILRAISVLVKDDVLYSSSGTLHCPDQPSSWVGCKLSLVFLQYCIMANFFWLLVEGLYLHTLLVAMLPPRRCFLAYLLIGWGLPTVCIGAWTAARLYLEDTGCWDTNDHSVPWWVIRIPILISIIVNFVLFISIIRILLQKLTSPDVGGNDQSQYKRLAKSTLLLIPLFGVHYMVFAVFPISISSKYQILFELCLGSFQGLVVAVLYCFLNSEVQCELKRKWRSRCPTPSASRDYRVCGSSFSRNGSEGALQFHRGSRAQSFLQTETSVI
In words: Cyclic AMP SPA on CHO cells expressing PACAP R3. It counts as cell-based. Set-up: expressed in transfected cells; host or cells: CHO cells (Geneticin selection). The conditions noted are these: for EC50: cAMP SPA, CHO cells transfected with PACAP-R3, concentration at which 50% of maximum PACAP27 activity is achieved, NA = no detectable activities, read-out: R3 EC50; for R3 Selectivity: ratio of EC50 at R2 versus EC50 at R3. As for the experimental part:
CHO cells expressing the PACAP R3 were plated in 96-well plates (Costar) at 8×10^4 cell/well and grown at 37 C. for 24 hours in α MEM+nucleosides+glutamine (Giobco BRL), 10% FBS, 100 μg/ml Pen/Strep, 0.3 mg/ml glutamine, 1 mM HEPES, 0.5 mg/ml Geneticin (Gibco BRL). The media was removed and the plates were washed with PBS. The cells were incubated with a peptide, in Hepes-PBS-BSA with 0.4 mg/mlSoybean Trypsin Inhibitor, 0.5 mg/ml Bacitracin, 100 uM IBMX, for 15 min at 37 C. Cyclic AMP in the cell extracts was quantitated using the cAMP SPA direct screening assay system (Amersham Pharmacia Biotech Inc, Piscataway, N.J.,). The peptides shown in Table 3 were assayed for cAMP activity.
EC50 is defined as the concentration of the polypeptide at which 50% of maximum PACAP27 activity is achieved. “NA” denotes no detectable activities. “R3 Selectivity” is derived from the ratio of EC50 at R2 versus EC50 at R3.

Assay [2] concerns the target T2, PACAP-R3 (human, UniProt P41587 24-438).
T2 sequence (looked up): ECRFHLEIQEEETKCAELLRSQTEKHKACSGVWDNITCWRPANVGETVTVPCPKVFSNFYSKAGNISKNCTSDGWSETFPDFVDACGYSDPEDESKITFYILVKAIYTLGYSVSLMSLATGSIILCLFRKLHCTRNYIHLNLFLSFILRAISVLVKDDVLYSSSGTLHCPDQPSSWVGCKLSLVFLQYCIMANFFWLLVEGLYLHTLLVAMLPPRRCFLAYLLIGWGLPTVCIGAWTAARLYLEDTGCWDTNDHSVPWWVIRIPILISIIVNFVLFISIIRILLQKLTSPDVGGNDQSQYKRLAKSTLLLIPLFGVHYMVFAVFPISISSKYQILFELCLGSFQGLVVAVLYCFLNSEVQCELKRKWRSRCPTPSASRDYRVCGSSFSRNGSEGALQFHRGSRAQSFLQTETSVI
In words: cell-based or functional assay.

Non-standard residues stand in square brackets, D forms with d. No end group written: not given here. Nle = CCCC[C@H](N)C(=O)O

In general, EC50 refers to the concentration needed to bring the measured effect to its halfway point. On to `CC[C@H](C)[C@H](NC(=O)[C@H](CC(=O)O)NC(=O)[C@H](CC(N)=O)NC(=O)[C@H](CC(C)C)NC(=O)[C@H](Cc1ccc(O)cc1)NC(=O)[C@H](CCCCN)NC(=O)[C@H](CCCCN)NC(=O)[C@@H](NC(=O)[C@H](C)NC(=O)[C@H](CC(C)C)NC(=O)[C@H](CCC(N)=O)NC(=O)[C@H](CCCCN)NC(=O)[C@H](CCCNC(=N)N)NC(=O)[C@H](CC(C)C)NC(=O)[C@H](CCCNC(=N)N)NC(=O)[C@@H](NC(=O)[C@H](Cc1ccc(O)cc1)NC(=O)[C@H](CC(N)=O)NC(=O)[C@H](CC(=O)O)NC(=O)[C@@H](NC(=O)[C@H](Cc1ccccc1)NC(=O)[C@@H](NC(=O)[C@H](C)NC(=O)[C@H](CC(=O)O)NC(=O)[C@H](CO)NC(=O)[C@@H](N)Cc1c[nH]cn1)C(C)C)[C@@H](C)O)[C@@H](C)O)C(C)C)C(=O)N[C@@H](CC(C)C)C(=O)N[C@@H](CCCCN)C(=O)NCC(=O)NCC(=O)N[C@H](C(=O)O)[C@@H](C)O` [Peptide R3P28], for which the EC50 at PACAP-R3 [1] amounted to 7 nM. Regarding `CC[C@H](C)[C@H](NC(=O)CNC(=O)[C@H](CC(=O)O)NC(=O)[C@H](CO)NC(=O)[C@@H](N)Cc1c[nH]cn1)C(=O)N[C@@H](Cc1ccccc1)C(=O)N[C@H](C(=O)N[C@@H](CC(=O)O)C(=O)N[C@@H](CO)C(=O)N[C@@H](Cc1ccc(O)cc1)C(=O)N[C@@H](CO)C(=O)N[C@@H](CCCNC(=N)N)C(=O)N[C@@H](Cc1ccc(O)cc1)C(=O)N[C@@H](CCCNC(=N)N)C(=O)N[C@@H](CCCCN)C(=O)N[C@@H](CCC(N)=O)C(=O)N[C@@H](CCSC)C(=O)N[C@@H](CCCCN)C(=O)N[C@H](C(=O)N[C@@H](CCCCN)C(=O)N[C@@H](CCCCN)C(=O)N[C@@H](Cc1ccc(O)cc1)C(=O)N[C@@H](CC(C)C)C(=O)N[C@@H](C)C(=O)N[C@@H](C)C(=O)N[C@H](C(=O)N[C@@H](CC(C)C)C(N)=O)C(C)C)C(C)C)[C@@H](C)O` [PAC18], on PACAP-R3 [1], the EC50 turned out to be 1.1 nM. As for “HSDGIFTDSYSRYRKQLAAKKYLADVKK [Peptide R3P38]”, on PACAP-R3 [1], the “R3 Selectivity” value is 7.

On to `CC[C@H](C)[C@H](NC(=O)[C@H](CC(=O)O)NC(=O)[C@H](CC(N)=O)NC(=O)[C@H](CC(C)C)NC(=O)[C@H](Cc1ccc(O)cc1)NC(=O)[C@H](CCCCN)NC(=O)[C@H](CCCCN)NC(=O)[C@H](C)NC(=O)[C@H](C)NC(=O)[C@H](CC(C)C)NC(=O)[C@H](CCC(N)=O)NC(=O)[C@H](CCCCN)NC(=O)[C@H](CCCNC(=N)N)NC(=O)[C@H](CC(C)C)NC(=O)[C@H](CCCNC(=N)N)NC(=O)[C@@H](NC(=O)[C@H](Cc1ccc(O)cc1)NC(=O)[C@H](CC(N)=O)NC(=O)[C@H](CC(=O)O)NC(=O)[C@@H](NC(=O)[C@H](Cc1ccccc1)NC(=O)[C@@H](NC(=O)[C@H](C)NC(=O)[C@H](CC(=O)O)NC(=O)[C@H](CO)NC(=O)[C@@H](N)Cc1c[nH]cn1)C(C)C)[C@@H](C)O)[C@@H](C)O)C(=O)N[C@@H](CCCCN)C(=O)N[C@@H](CCCCN)C(=O)NCC(=O)O` [Peptide R3P32], for which the EC50 at PACAP-R3 [1] stood at 0.4 nM.

With “H-HSDAVFTDNYTRLRKQMAPKKYLNSIKNKR [Peptide R3P108]”, on PACAP-R3 [1], the EC50 amounted to 300 nM and the “R3 Selectivity” value was 3.

Consider `CC[C@H](C)[C@H](NC(=O)[C@@H](NC(=O)[C@H](CC(N)=O)NC(=O)[C@H](CC(C)C)NC(=O)[C@H](Cc1ccc(O)cc1)NC(=O)[C@H](CCCCN)NC(=O)[C@H](CCCCN)NC(=O)[C@H](C)NC(=O)[C@H](C)NC(=O)[C@H](CC(C)C)NC(=O)[C@H](CCC(N)=O)NC(=O)[C@H](CCCCN)NC(=O)[C@H](CCCNC(=N)N)NC(=O)[C@H](CC(C)C)NC(=O)[C@H](CCCNC(=N)N)NC(=O)[C@@H](NC(=O)[C@H](Cc1ccc(O)cc1)NC(=O)[C@H](CCC(N)=O)NC(=O)[C@H](CC(=O)O)NC(=O)[C@@H](NC(=O)[C@H](Cc1ccccc1)NC(=O)[C@@H](NC(=O)[C@H](C)NC(=O)[C@H](CC(=O)O)NC(=O)[C@H](CO)NC(=O)[C@@H](N)Cc1c[nH]cn1)C(C)C)[C@@H](C)O)[C@@H](C)O)[C@@H](C)O)C(=O)N[C@@H](CCCCN)C(=O)N[C@@H](CC(N)=O)C(=O)N[C@@H](CCCCN)C(=O)N[C@@H](CCCNC(=N)N)C(=O)N[C@@H](Cc1ccc(O)cc1)C(=O)O` [Peptide R3P72], for which, on PACAP-R3 [1], the concentration for a half-maximal effect (EC50) stood at 0.16 nM. Same read-out and setting: for `CC[C@H](C)[C@H](NC(=O)[C@H](CO)NC(=O)[C@H](CC(N)=O)NC(=O)[C@H](CC(C)C)NC(=O)[C@H](Cc1ccc(O)cc1)NC(=O)[C@H](CCCCN)NC(=O)[C@H](CCCCN)NC(=O)[C@H](CO)NC(=O)[C@H](C)NC(=O)[C@H](CCSC)NC(=O)[C@H](CCC(N)=O)NC(=O)[C@H](CCCCN)NC(=O)[C@H](CCCNC(=N)N)NC(=O)[C@H](CC(C)C)NC(=O)[C@H](CCCNC(=N)N)NC(=O)[C@@H](NC(=O)[C@H](Cc1ccc(O)cc1)NC(=O)[C@H](CC(N)=O)NC(=O)[C@H](CC(=O)O)NC(=O)[C@@H](NC(=O)[C@H](Cc1ccccc1)NC(=O)[C@@H](NC(=O)[C@H](C)NC(=O)[C@H](CC(=O)O)NC(=O)[C@H](CO)NC(=O)[C@@H](N)Cc1c[nH]cn1)C(C)C)[C@@H](C)O)[C@@H](C)O)C(=O)N[C@@H](CCCCN)C(=O)N[C@@H](CC(N)=O)C(=O)N[C@@H](CCCCN)C(=O)N[C@@H](CCCNC(=N)N)C(=O)O` [Peptide R3P111] the value was 3 nM. HSDAVFTDNYTRLRKQLAVKKYLNSILN [R3P46]: in the assay with PACAP-R3 [2], the “R3 EC50” value amounted to 0.06 nM and the “R3 Selectivity” value came to 7. In the same order, the values of HSDAVFTDNYTRLRKQMAAKKYLNSIKKKR [R3P53] are 0.2 nM and 2500. In the same order, the values of HSDAVFTDNYTRLRKQMAAKKYLNSIKK [R3P51] are 0.26 nM and 90. In the same order, the values of Ac-HSDAVFTENYTKLRKQLAAKKYLNDLKKGGT-NH2 [R3P1] are 2 nM and above 50. As for HSDAVFTDNYTRLRKQMAVKKYLNSIKKK [R3P58], in the assay with PACAP-R3 [2], the “R3 EC50” value amounted to 0.32 nM and the “R3 Selectivity” value is 170. The like results for HSDAVFTDNYTRLRKQMAAKKYLNSIKN [R3P49] were, in that order, 0.27 nM and 30. Consider HSDAVFTDNYTRLRKQMAAKKYLNSIKKKRY [R3P52], for which, in the assay with PACAP-R3 [2], the “R3 EC50” value worked out at 0.4 nM and the “R3 Selectivity” value is above 250.

HSDAVFTDNYTRLRKQMAVKKYLNSIKNKRY [R3P59]: in the assay with PACAP-R3 [2], the “R3 EC50” value turned out to be 0.15 nM and the “R3 Selectivity” value turned out to be 70. In the same order, the values of HSDAVFTDNYTRLRKQMAAKKYLNSIKNKRY [R3P55] are 0.17 nM and 280.

Regarding HSDAVFTDNYTRLRKQMAVKKYLNSIKKKRY [R3P56], in the assay with PACAP-R3 [2], the “R3 EC50” value worked out at 0.4 nM and the “R3 Selectivity” value was determined as 100. The like results for HSDAVFTDNYTRLRKQMAAKKYLNSILN [R3P47] were, in that order, 0.12 nM and 6. Regarding HSDAVFTDNYTRLRKQMAAKKYLNSILK [R3P50], in the assay with PACAP-R3 [2], the “R3 EC50” value was 0.13 nM and the “R3 Selectivity” value is 6.

For the molecule HSDAVFTDNYTRLRKQMAVKKYLNDILN [R3P48], in the assay with PACAP-R3 [2], the “R3 EC50” value was 0.13 nM and the “R3 Selectivity” value turned out to be 8. The like results for HSDAVFTDNYTRLRKQMAAKKYLNSIKKK [R3P54] were, in that order, 0.5 nM and above 200. The like results for Ac-HSDAVFTENYTKLRKQ[Nle]AAKKYLNDLKKGGT-NH2 [R3P0] were, in that order, 0.4 nM and above 250. As to HSDAVFTDNYTRLRKQMAVKKYLNSIKKKR [R3P57], in the assay with PACAP-R3 [2], the “R3 EC50” value amounted to 0.23 nM and the “R3 Selectivity” value came out at 190.

The values above are taken from patent US6972319B1, “Pituitary adenylate cyclase activating peptide (PACAP)receptor 3 (R3) agonists and their pharmacological methods of use” (priority 1999, dated 2005).
